Assay in all cases: SEC
For orientation: SEC sorts molecules by how far they enter the pores of the column.

For assay [1], the target named is PahZ1Bfg, PahZ1 homolog from Brevifollis gellanilyticus (PahZ1-like domain fused to a CapA-like domain), residues 23-644 (Brevifollis gellanilyticus).
Assay [2] has as its target PahZ1_(KT-1), poly(aspartic acid) hydrolase PahZ1 from Sphingomonas sp. KT-1 (Sphingomonas sp. KT-1).
Assay [3] concerns the target PahZ1_(Spyx), PahZ1 homolog from Sphingopyxis sp. Root1497, residues 21-313 (Sphingopyxis sp. Root1497).

Broadly, the stoichiometry N is a count of units in the complex or per binding partner. As for “PahZ1Bfg, PahZ1 homolog from Brevifollis gellanilyticus (PahZ1-like domain fused to a CapA-like domain), residues 23-644 (enzyme)”, the stoichiometry N in assay [1] is 2.
The substance “PahZ1_(KT-1), poly(aspartic acid) hydrolase PahZ1 from Sphingomonas sp. KT-1 (enzyme)” registered a stoichiometry N in assay [2] of 2.
“PahZ1_(Spyx), PahZ1 homolog from Sphingopyxis sp. Root1497, residues 21-313 (enzyme)” had a stoichiometry N in assay [3] of 2.

Source of the values: PMC13017698.
